Test results taken from the Human Domainome abundance scans (Beltran et al. 2025).

B1: Ankyrin repeat and SOCS box protein 14, residues 532 to 572; numbered along this chain, A6NK59 (parent)
chain: RSLKHLCRLKIRKCMGRLHLRCPVFMSFLPLPNRLKAYVLY

Variants of: B1
Assay: abundance fitness (aPCA) (normalised: wild type 0, dead -1); higher = more abundant; growth selection in yeast, the domain comes from the species named
Conditions: Homo sapiens

Abundance fitness of substitutions, site by site:
C14: D 0.014, P -0.3, H -0.373, E -0.024, L 0.431, S -0.155, G -0.076, R -0.264, V 0.376, W 0.462, K -0.165, A 0.273, M 0.308
C22: N -0.719, L 0.243, F 0.057, K -0.519, S -0.247, D -1.02, M 0.162, R -0.282, V 0.064, H -0.052, Q -0.521, W 0.218, E -0.455, Y -0.139, I 0.178, P -0.086, G -0.339
P30: C 0.197, I -0.217, V -0.009, Y -0.067, E 0.4, F -0.182, R 0.485, M 0.26, A 0.417, S 0.424, L 0.151, G 0.337, T 0.313, D 0.325
I11: V -0.17, E -0.953, K -0.858, A -0.613, G -0.68, P -0.675, R -0.956, L -0.09, Q -0.992, W 0.023, T -0.722, C -1.05
H19: W -0.053, F -0.097, G 0.024, Q -0.004, C -0.236, Y -0.336, K 0.141, V -0.111, L 0.069, T -0.22, D -0.272, A 0.171, R 0.018, M -0.183, P -0.326, E -0.24
R17: L 0.17, N -0.326, Y 0.506, E 0.103, A 0.371, I -0.203, T -0.038, P -0.06, S 0.227, H 0.104, W 0.722, F 0.551, K 0.046, G 0.293, D -0.07, M 0.079, Q 0.13, V 0.213, C 0.153
F25: M -0.042, P 0.074, G -0.048, L 0.19, V 0.033, R -0.116, K 0.089, S -0.095, T -0.243, D 0.197, Q -0.123, C -0.449, A -0.178, H -0.447, I 0.316
S27: E -0.006, M -0.892, T -0.247, N 0.019, V -0.709, G -0.075, K 0.078, C -0.536, W -0.156, A -0.059, R 0.042, Q -0.085, P -0.386, L -1.09, Y -1.05, D -0.054
R12: W -0.201, T -0.224, D -0.03, A -0.261, M 0.083, L -0.063, I 0.099, K 0.129, V -0.071, C -0.249, H -0.662, G -0.262, Q -0.168, P -0.235, S -0.178
L29: M -0.618, P -0.342, D -0.435, A -0.356, S -0.258, V -0.353, Y -0.53, F -0.473, I -0.037, G -0.349, K -0.299, T -0.455, E -0.672
L31: R -0.338, K -0.529, T -0.439, M -0.301, P -0.476, H -0.434, A -0.272, V -0.086, I -0.006, S -0.113, D -0.256, G -0.28, Q -0.656, E -0.846
M26: T -0.002, L 0.078, S 0.018, E 0.194, Y -0.207, A -0.08, C -0.013, G 0.072, P -0.002, D -0.004, R -0.047, Q -0.154, H 0.113, K -0.026, I -0.038, W 0.118
L20: Y -0.655, D 0.3, C -0.296, K 0.101, I -0.308, R -0.348, Q -0.087, W -0.285, G -0.089, T 0.069, F -0.026, E 0.249, A 0.083, S -0.093, V -0.233, M -0.098
G16: K 0.092, D 0.084, T 0.12, E 0.355, N 0.231, R 0.121, P -0.105, W -0.058, C -0.269, L 0.102, Q 0.356, H 0.024, F -0.152
V24: K 0.449, W 0.233, N 0.316, L -0.081, E 0.347, T 0.176, Y -0.166, M -0.217, F 0.469, S 0.308, G 0.319, P 0.137, C 0.251, Q 0.242, R 0.352, D 0.472
K10: L 0.445, Y 0.168, R -0.393, G -0.066, V 0.406, Q -0.107, M 0.439, H -0.559, T 0.039
M15: S -0.612, Q -0.576, V -0.126, H -0.794, D -1, T -0.383, L 0.202, W 0.132, G -0.367, A -0.204, E -0.738, P -0.671, F -0.16, C -0.319, Y -0.701, R -0.6
F28: K 0.221, A -0.228, W 0.177, R 0.104, H 0.199, Y -0.01, V -0.156, S -0.05, I 0.001, N 0.005, Q 0.066, T -0.237, E 0.27, M -0.127, C -0.198, L 0.128, P -0.322, D -0.056
P23: N -0.049, W 0.321, R 0.357, E 0.36, G 0.198, A 0.321, V 0.384, Y 0.283, S 0.273, M 0.334, F 0.078, D 0.315, T 0.336, Q 0.407, K 0.524, H -0.306, L 0.494, C 0.28
R21: T -0.178, Q -0.623, G -0.061, F -0.102, D -0.143, L 0.196, I 0.207, K -0.029, W 0.275, E -0.508, A -0.076, P -0.322, H -0.295, V 0.009, C -0.253, S -0.147, M 0.129, N 0.096
L18: T -0.571, M -0.071, I 0.248, V -0.392, E -0.748, A -0.544, R -0.894, Q -0.732, N -1.07, K -0.774, C -0.284, F 0.006, G -0.874, S -0.735
K13: R 0.048, M -0.09, T -0.161, I -0.091, G 0.045, V -0.236, Q 0.086, H -0.081, A 0.009, C -0.192, L -0.241, S -0.031, E 0.201, P -0.434, W -0.166, Y -0.179
